The values that follow come from article PMC7382501.

Broadly, the Kd is the constant that tells how readily two partners part at equilibrium. Low values mean a tighter complex, high ones a looser complex.

For this data set, the system named is FasR wild-type (FasRwt) (Mycobacterium tuberculosis H37Rv). Kind of data set: EMSA. In general terms: Mobility shift assays separate free from complexed probe on a gel.

PfasMT promoter fragment (398 bp) displayed a Kd of 83 nM.
